Measured values as given in patent US20230149507A1, “TREATMENT OF ALT CANCERS” (INSTITUTO DE MEDICINA MOLECULAR JOÃO LOBO ANTUNES, priority 2019, published 2023).

Key:
HeLa cells = test: FACS cell cycle analysis of FANCM-depleted HeLa cells with added agents; type: cell-based, human; conditions: HeLa cells depleted for FANCM; 20 μM BIBR 1532 for 7 days
FANCM-BTR complex = molecular target: T1, FANCM-BTR complex (Homo sapiens, UniProt Q96E14+Q9H9A7); test: Flag-FANCM immunoprecipitation of the FANCM-BTR complex with MM2 peptides added to cellular lysates; type: binding; conditions: peptide 1-50 μM, lysates of HEK-293 cells expressing Flag-FANCM
T1 construct: expressed in transfected cells; host or cells: HEK-293
T1 sequence (Q9H9A7 1-625): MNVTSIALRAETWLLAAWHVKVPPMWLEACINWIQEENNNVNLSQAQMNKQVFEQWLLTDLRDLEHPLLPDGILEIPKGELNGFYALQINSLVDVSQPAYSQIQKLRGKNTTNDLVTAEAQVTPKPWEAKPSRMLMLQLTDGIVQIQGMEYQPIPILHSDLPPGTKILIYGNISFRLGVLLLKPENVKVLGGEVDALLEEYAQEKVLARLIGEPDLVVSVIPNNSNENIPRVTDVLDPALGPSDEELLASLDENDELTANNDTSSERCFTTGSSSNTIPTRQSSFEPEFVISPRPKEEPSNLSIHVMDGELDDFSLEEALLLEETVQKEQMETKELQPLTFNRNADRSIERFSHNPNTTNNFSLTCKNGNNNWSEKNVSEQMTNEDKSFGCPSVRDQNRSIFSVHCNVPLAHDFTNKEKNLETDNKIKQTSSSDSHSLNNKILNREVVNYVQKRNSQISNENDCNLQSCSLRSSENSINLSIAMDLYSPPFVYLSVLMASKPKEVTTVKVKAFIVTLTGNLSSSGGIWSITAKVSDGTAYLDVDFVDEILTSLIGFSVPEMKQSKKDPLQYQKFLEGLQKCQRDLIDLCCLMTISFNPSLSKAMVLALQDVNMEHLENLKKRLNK
T1 sequence (Q96E14 2-147 limits assumed): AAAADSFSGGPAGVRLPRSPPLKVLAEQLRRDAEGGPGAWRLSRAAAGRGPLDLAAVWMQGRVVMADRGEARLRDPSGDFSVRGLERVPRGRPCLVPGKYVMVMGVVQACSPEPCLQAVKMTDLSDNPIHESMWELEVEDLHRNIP
T1 sequence (Q13472 1-1001 partner): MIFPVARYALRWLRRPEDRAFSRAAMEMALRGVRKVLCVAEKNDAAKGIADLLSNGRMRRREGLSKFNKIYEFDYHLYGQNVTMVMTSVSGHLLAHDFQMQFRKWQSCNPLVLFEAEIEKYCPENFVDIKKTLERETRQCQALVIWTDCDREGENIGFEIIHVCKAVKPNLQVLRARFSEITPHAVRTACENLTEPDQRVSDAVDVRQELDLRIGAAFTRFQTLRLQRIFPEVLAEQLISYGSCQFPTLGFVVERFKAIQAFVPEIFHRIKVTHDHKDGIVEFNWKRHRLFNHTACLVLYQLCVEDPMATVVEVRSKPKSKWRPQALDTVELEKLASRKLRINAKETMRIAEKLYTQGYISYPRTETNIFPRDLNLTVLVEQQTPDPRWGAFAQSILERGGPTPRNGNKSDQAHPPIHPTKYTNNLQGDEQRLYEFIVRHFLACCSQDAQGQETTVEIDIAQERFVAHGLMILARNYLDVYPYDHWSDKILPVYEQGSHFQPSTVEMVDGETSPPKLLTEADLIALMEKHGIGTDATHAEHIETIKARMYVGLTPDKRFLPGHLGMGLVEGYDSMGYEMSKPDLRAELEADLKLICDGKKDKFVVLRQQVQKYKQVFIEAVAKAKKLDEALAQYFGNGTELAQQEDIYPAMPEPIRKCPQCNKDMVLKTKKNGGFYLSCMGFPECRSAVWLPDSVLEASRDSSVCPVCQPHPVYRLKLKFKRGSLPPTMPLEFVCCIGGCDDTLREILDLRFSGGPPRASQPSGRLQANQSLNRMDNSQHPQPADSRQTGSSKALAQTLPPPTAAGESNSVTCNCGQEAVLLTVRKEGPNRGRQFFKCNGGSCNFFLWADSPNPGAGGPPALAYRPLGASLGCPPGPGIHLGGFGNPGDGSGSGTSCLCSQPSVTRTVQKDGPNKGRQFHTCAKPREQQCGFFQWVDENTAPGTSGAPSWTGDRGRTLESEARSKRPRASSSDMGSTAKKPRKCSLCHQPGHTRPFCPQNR
Source text: FIG. 10. Characterization of the MM2-ER fusion protein. (a) Schematic showing competitive inhibition of FANCM-BTR complex formation by the MM2 peptide. […] (c) Representative mitotic spreads showing sister-chromatid exchanges (SCEs) in U-2 OS cells expressing MM2-ER or FF>AA-ER mutant fusion proteins in the presence or absence of 40HT (left panel). Quantitation of SCEs (right panel). (d) Representative mitotic spreads showing sister-chromatid exchanges (SCEs) in HeLa cells expressing MM2-ER or FF>AA-ER mutant fusion proteins in the presence or absence of 40HT (left panel). Quantitation of SCEs (right panel). SCEs are indicated by black arrows. For c and d, scatterplot bars represent the mean±SEM number of SCEs from 15-30 mitotic spreads, *p<0.05, **p<0.005, Mann-Whitney test. NB: The frequency of double labelled mitoses in MM2-ER+4OHT samples was approximately 10% of that in the controls, likely due to significant cell cycle delays introduced by activation of the MM2-inhibitor. As thus, SCE levels are likely underestimated in this experiment.
For co-IP experiments involved the ER-inducible system, cells were lysed in IP buffer (20 mM Tris-HCl pH 7.5, 100 mM NaCl, 10% (v/v) glycerol, 0.5 mM EDTA, 1 mM DTT) supplemented with 1× mammalian protease inhibitor cocktail (Sigma Aldrich) and 50 U/ml Benzonase (Novagen) for 2 h at 4° C., with or without MM2 peptide variants (Mimotopes). Following lysis, NaCl concentration was increased to 250 mM, then the lysate cleared at 16,000×g for 15 mins. Supernatant was then mixed with 1 μg of α-FANCM (Abcam) or α-ER (Santa Cruz Biotechnology) and 20 μl protein G sepharose (GE Healthcare), or using α-Flag M2 agarose (Sigma Aldrich). Following 3 h of mixing at 4° C., beads were washed 4× with IP buffer, and 1× with 50 mM NH4(CO3)2, 0.5 mM EDTA, then eluted with 500 mM NH4OH (pH 11.0), 0.5 mM EDTA. Samples were then lyophilized and resuspended in 1×LDS loading buffer (Life Technologies) prior to immunoblotting.

U-2 OS ALT cells = test: Metaphase-TIFs after FANCM knockdown with siRNA; type: cell-based, human; conditions: compared to the scrambled control; siRNA 30 nM, 72 h
Source text: (a) Representative images of telomere (green) and γ-H2AX (red) colocalizations on metaphase spreads (meta-TIFs) in U-2 OS cells with or without FANCM depletion (left panel). Meta-TIFs are indicated by white arrows. Scale bars are 5 μm. Quantitation of TIFs (right panel). Scatterplot bars represent the mean±SEM. Out of 3 experiments, n≥81 metaphases scored per treatment, **p<0.005, Mann-Whitney test. (b) Native and denatured TRF analysis of U-2 OS cells with or without FANCM depletion. Colored arrows correspond to telomeric DNA species depicted in panel c. (c) Schematic of migration patterns for indicated telomeric species separated by two-dimensional gel electrophoresis (top panel). Two-dimensional TRF analysis of U-2 OS cells with or without FANCM depletion, hybridized under native and denatured conditions to detect the telomeric C-strand and G-strand (left and right panels). Colored arrows correspond to telomeric DNA species depicted in schematic. (d) Representative dot blot and quantitation of C-circle assays of U-2 OS cells with or without FANCM depletion. C-circle levels were normalized to the mean of scrambled control. Error bars represent the mean±SEM from n=3 experiments, *p<0.05, **p<0.005, Student's t-test. […] Out of 3 experiments, n≥150 cells scored per treatment, *p<0.05, **p<0.005, Mann-Whitney test. […]

With C/C(=C\C(=O)Nc1ccccc1C(=O)O)c1ccc2ccccc2c1 [BIBR 1532] the “accumulation in G2/M” value (HeLa cells) was “did not accumulated in G2/M”.

For “MM2 peptide containing the FF>AA mutant: MM2 peptide containing the FF>AA mutant (SEQ ID NO: 30) that does not bind to BTR (EDIFDCSRDLFSVTADLGACSPDSDDEILEHTSD; mutated FANCM peptide) [reference compound]”, the “FANCM-BTR complex formation (TOP3A binding)” value (from here on “FANCM-BTR complex formation”) (FANCM-BTR complex) was “unable to inhibit complex formation”.

In the case of “MM2 peptide: chemically synthesized peptide (SEQ ID NO: 29) corresponding to the highly conserved 28 amino acids of the MM2 domain (EDIFDCSRDLFSVTFDLGFCSPDSDDEILEHTSD; wildtype FANCM MM2 peptide)”, the “FANCM-BTR complex formation” value (FANCM-BTR complex) is reported as “dose-dependent inhibition of FANCM-BTR complex formation” and the “FANCM-BTR complex formation” value (FANCM-BTR complex; listed as MM2-WT) is reported as “diminishes with increasing concentrations”.

“siFANCM1: Silencer Select siRNA FANCM1 (s33619) (SEQ ID NO: 12) (GCUCGUUCUUUGAUUCAGA; listed as RNA, chemistry not given here)” was tested, and the “metaphase-TIFs (meta-TIFs)” value (U-2 OS ALT cells) was “significant increase in metaphase-TIFs”.
